Test [1] deals with 14-3-3β (UniProt P31946). Put plainly: GFP-14-3-3β IP, anti-myc blot. The following applies: reference: wild type; sites S351,S377.
Test [2] deals with CDK4 (UniProt P11802). The test can be described thus: reciprocal co-IP, anti-GFP or anti-CDK4. The settings on record: reference: wild type; sites S351,S377.
Test [3] deals with CDK4 (UniProt P11802). The test can be described thus: glutathione-bead pull-down from co-transfected cells, anti-Flag blot. The settings on record: sites S351,S377.

Sequence of UniProt P11802 (P11802 whole entry, looked up): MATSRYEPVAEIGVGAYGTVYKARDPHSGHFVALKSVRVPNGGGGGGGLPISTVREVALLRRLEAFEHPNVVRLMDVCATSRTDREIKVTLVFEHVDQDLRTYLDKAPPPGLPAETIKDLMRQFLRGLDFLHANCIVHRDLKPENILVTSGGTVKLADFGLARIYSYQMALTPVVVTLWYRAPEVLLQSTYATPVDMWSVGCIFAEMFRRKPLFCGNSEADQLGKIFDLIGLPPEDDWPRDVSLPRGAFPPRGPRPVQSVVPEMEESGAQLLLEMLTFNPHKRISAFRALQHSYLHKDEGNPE
Sequence of UniProt P31946 (P31946 whole entry, looked up): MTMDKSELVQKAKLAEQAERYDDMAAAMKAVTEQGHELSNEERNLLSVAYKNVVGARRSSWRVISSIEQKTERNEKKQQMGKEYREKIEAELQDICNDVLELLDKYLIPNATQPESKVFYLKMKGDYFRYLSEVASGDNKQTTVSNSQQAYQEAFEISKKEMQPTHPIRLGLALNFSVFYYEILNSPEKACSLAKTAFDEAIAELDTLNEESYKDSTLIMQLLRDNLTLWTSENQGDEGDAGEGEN

As for “PIKE-A (from UniProt Q99490-2) S351/377A (SA)”, the “binding against the reference” value in test [1] was “weaker”.
On to PIKE-A (from UniProt Q99490-2) SA, for which the “binding against the reference” value in test [2] is “weaker”.
On to “PIKE-A (from UniProt Q99490-2) SA + myc-AMPKα T172A”, for which the “binding against the reference” value in test [3] (reference: wild type + myc-AMPKα T172A) was “weaker”.
“PIKE-A (from UniProt Q99490-2) SA + myc-AMPKα T172D”: the “binding against the reference” value in test [3] (reference: wild type + myc-AMPKα T172D) is on record as “weaker”.

These data come from PMC6399291.
